Source: patent US20120088276

Legend:
[1] = molecular target: T1, E. coli (strain K12) RecA protein, wild type
T1 chain: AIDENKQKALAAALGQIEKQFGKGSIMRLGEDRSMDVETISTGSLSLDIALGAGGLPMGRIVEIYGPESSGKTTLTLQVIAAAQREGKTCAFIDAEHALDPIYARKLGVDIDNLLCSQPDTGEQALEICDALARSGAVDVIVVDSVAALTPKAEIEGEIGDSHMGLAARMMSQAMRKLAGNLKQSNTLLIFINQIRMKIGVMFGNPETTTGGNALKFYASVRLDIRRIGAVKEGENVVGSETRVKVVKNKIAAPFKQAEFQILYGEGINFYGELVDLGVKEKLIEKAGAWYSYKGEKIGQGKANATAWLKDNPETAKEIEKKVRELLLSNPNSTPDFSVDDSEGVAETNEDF

B1: bacteriophage P1 Ref protein (wild type) (protein)
chain: MKTIEQKIEQCRKWQKAARERAIARQREKLADPVWRESQYQKMRDTLDRRIAKQKERPPASKTRKSAVKIKSRGLKGRTPTAEERRIANALGALPCIACYMHGVISNEVSLHHIAGRTAPGCHKKQLPLCRWHHQHAAPAEVREKYPWLVPVHADGVVGGKKEFTLLNKSEMELLADAYEMANIMH
nuclease activity (degradation of M13mp18 circular ssDNA, agarose gel) [1]: the nuclease activity depended on both Ref and active RecA filaments | targeted cleavage of both strands of duplex DNA at RecA-created D-loops (restriction analysis, agarose gel) (RecA E38K mutant protein): the Ref-induced breaks in the circular double stranded DNA occur where the RecA-bound oligonucleotide invaded the duplex DNA to form a D-loop
